The target in this experiment is standard human 20S proteasome, immunopurified from HEK293-EBNA cells (human). Description: mass photometry.

Where “and” joins values, the source holds several entries; their conditions need not be identical. Identical values can stand only once.

Turning to “recombinant human PA200 (proteasome activator 200) (from UniProt Q14997 1-1843) (natural protein)”, the percent of total 20S bound at a PA200:20S molar ratio of 8 is > 60%; the stoichiometry N (PA200 per 20S) is 1 and 2.

The values are drawn from article doi:10.1101/2024.12.17.628836.
